Source: the Immune Epitope Database (IEDB)

How the values were obtained:
HLA-A*26:01 = assay: IEDB peptide-MHC binding, purified MHC/competitive/fluorescence; filed as Kd, often an IC50 or EC50 that approximates it; ≥ and ≤ were set here for values at or beyond the usual limits of such assays
HLA-A*02:01 = assay: as above
HLA-A*03:01 = assay: as above
HLA-B*15:01 = assay: as above
HLA-B*57:01 = assay: as above
HLA-A*02:03 = assay: as above
HLA-A*02:11 = assay: as above
HLA-B*51:01 = assay: as above
HLA-A*24:03 = assay: as above
HLA-A*23:01 = assay: as above
HLA-B*18:01 = assay: as above
HLA-B*46:01 [1] = assay: as above
HLA-A*02:12 = assay: as above
HLA-A*29:02 = assay: as above
HLA-B*27:03 = assay: as above
HLA-B*15:17 = assay: as above
HLA-B*39:01 = assay: as above
HLA-A*02:19 = assay: as above
HLA-B*15:02 = assay: as above
HLA-C*12:03 = assay: IEDB peptide-MHC binding, purified MHC/direct/fluorescence; filed as Kd, often an IC50 or EC50 that approximates it; ≥ and ≤ were set here for values at or beyond the usual limits of such assays; conditions: source organism: Francisella tularensis subsp. tularensis FSC198
HLA-A*32:15 = assay: IEDB peptide-MHC binding, purified MHC/competitive/fluorescence; filed as Kd, often an IC50 or EC50 that approximates it; ≥ and ≤ were set here for values at or beyond the usual limits of such assays; conditions: source organism: Yersinia pestis Nepal516
HLA-B*15:42 = assay: as above; conditions: source organism: Yersinia pestis Nepal516
HLA-B*83:01 = assay: as above; conditions: source organism: Yersinia pestis Nepal516
HLA-A*68:23 = assay: as above; conditions: source organism: Yersinia pestis Nepal516
HLA-B*45:06 = assay: as above; conditions: source organism: Yersinia pestis Nepal516
HLA-B*58:01 = assay: as above; conditions: source organism: Yersinia pestis Nepal516
HLA-A*32:07 = assay: as above; conditions: source organism: Yersinia pestis Nepal516
HLA-A*24:02 = assay: as above; conditions: source organism: Yersinia pestis Nepal516
HLA-C*06:02 = assay: as above; conditions: source organism: Yersinia pestis Nepal516
HLA-B*40:13 = assay: as above; conditions: source organism: Yersinia pestis Nepal516
HLA-A*26:03 = assay: IEDB peptide-MHC binding, purified MHC/direct/fluorescence; filed as Kd, often an IC50 or EC50 that approximates it; ≥ and ≤ were set here for values at or beyond the usual limits of such assays; conditions: source organism: Burkholderia mallei ATCC 23344
HLA-A*02:16 = assay: IEDB peptide-MHC binding, purified MHC/competitive/fluorescence; filed as Kd, often an IC50 or EC50 that approximates it; ≥ and ≤ were set here for values at or beyond the usual limits of such assays; conditions: source organism: Shigella dysenteriae Sd197
HLA-A*01:01 = assay: as above; conditions: source organism: Escherichia coli 536
HLA-A*26:02 = assay: as above; conditions: source organism: Escherichia coli 536
HLA-B*27:05 = assay: as above; conditions: source organism: Escherichia coli 536
HLA-A*02:06 = assay: as above; conditions: source organism: Escherichia coli 536
HLA-B*48:01 = assay: IEDB peptide-MHC binding, purified MHC/direct/fluorescence; filed as Kd, often an IC50 or EC50 that approximates it; ≥ and ≤ were set here for values at or beyond the usual limits of such assays; conditions: source organism: Burkholderia mallei
HLA-A*69:01 = assay: as above; conditions: source organism: Burkholderia mallei
HLA-A*11:01 = assay: as above; conditions: source organism: Burkholderia mallei
HLA-A*31:01 = assay: as above; conditions: source organism: Burkholderia mallei
HLA-A*68:02 = assay: as above; conditions: source organism: Burkholderia mallei
HLA-B*40:01 = assay: as above; conditions: source organism: Burkholderia mallei
HLA-B*46:01 [2] = assay: as above; conditions: source organism: Burkholderia mallei
HLA-B*07:02 = assay: as above; conditions: source organism: Burkholderia mallei
[3] = source organism: Mycobacterium tuberculosis variant bovis BCG str. Pasteur 1173P2
[4] = source organism: Yersinia pestis Nepal516
[5] = source organism: Shigella dysenteriae Sd197
[6] = source organism: Escherichia coli 536

**Q.** What does the source list for AEDLADHHV?
**A.** Kd (HLA-A*26:01; [3]): ≥ 20 µM; Kd (HLA-A*02:01; [3]): ≥ 20 µM; Kd (HLA-A*03:01; [3]): ≥ 20 µM; Kd (HLA-B*15:01; [3]): ≥ 20 µM; Kd (HLA-B*57:01; [3]): ≥ 20 µM; Kd (HLA-A*02:03; [3]): ≥ 20 µM; Kd (HLA-A*02:11; [3]): 0.0131 µM; Kd (HLA-B*51:01; [3]): ≥ 20 µM; Kd (HLA-A*24:03; [3]): ≥ 20 µM; Kd (HLA-A*23:01; [3]): ≥ 20 µM; Kd (HLA-B*18:01; [3]): ≥ 20 µM; Kd (HLA-B*46:01 [1]; [3]): ≥ 20 µM; Kd (HLA-A*02:12; [3]): ≥ 20 µM; Kd (HLA-A*29:02; [3]): ≥ 20 µM; Kd (HLA-B*27:03; [3]): ≥ 20 µM; Kd (HLA-B*15:17; [3]): ≥ 20 µM; Kd (HLA-B*39:01; [3]): ≥ 20 µM; Kd (HLA-A*02:19; [3]): ≥ 20 µM

**Q.** How did the Kd (HLA-B*15:02; source organism: Francisella tularensis subsp. tularensis FSC198) turn out when MIYNSFNPY was run?
**A.** ≥ 20 µM

**Q.** And the Kd (HLA-C*12:03)?
**A.** ≥ 20 µM

**Q.** With MLYPLLWMF as the sequence, how does the Kd (HLA-A*32:15) read?
**A.** 0.155 µM

**Q.** What about the Kd (HLA-B*15:42) of the same sequence?
**A.** ≥ 5 µM

**Q.** What about the Kd (HLA-A*02:01; [4]) of the same sequence?
**A.** 0.169 µM

**Q.** And the Kd (HLA-B*83:01)?
**A.** ≥ 5 µM

**Q.** What about the Kd (HLA-B*15:01; [4]) of the same sequence?
**A.** 0.406 µM

**Q.** What about the Kd (HLA-A*68:23) of the same sequence?
**A.** 0.968 µM

**Q.** What about the Kd (HLA-B*45:06) of the same sequence?
**A.** ≥ 5 µM

**Q.** What about the Kd (HLA-B*58:01) of the same sequence?
**A.** 2.06 µM

**Q.** And the Kd (HLA-A*32:07)?
**A.** 0.599 µM

**Q.** What about the Kd (HLA-A*24:02) of the same sequence?
**A.** 0.0377 µM

**Q.** What about the Kd (HLA-C*06:02) of the same sequence?
**A.** 3.57 µM

**Q.** And the Kd (HLA-B*40:13)?
**A.** 3.5 µM

**Q.** For DIIGGPCAH, which Kd (HLA-A*26:03) is on record?
**A.** 2 µM

**Q.** What does the source list for IEDDEIIWV?
**A.** Kd (HLA-A*26:01; [5]): ≥ 20 µM; Kd (HLA-A*02:16): ≥ 20 µM; Kd (HLA-A*02:01; [5]): ≥ 20 µM; Kd (HLA-A*03:01; [5]): ≥ 20 µM; Kd (HLA-B*15:01; [5]): ≥ 20 µM; Kd (HLA-B*57:01; [5]): ≥ 20 µM; Kd (HLA-A*02:03; [5]): ≥ 20 µM; Kd (HLA-A*02:11; [5]): 0.0002 µM; Kd (HLA-B*51:01; [5]): ≥ 20 µM; Kd (HLA-A*24:03; [5]): ≥ 20 µM; Kd (HLA-A*23:01; [5]): ≥ 20 µM; Kd (HLA-B*18:01; [5]): ≥ 20 µM; Kd (HLA-B*46:01 [1]; [5]): ≥ 20 µM; Kd (HLA-A*02:12; [5]): ≥ 20 µM; Kd (HLA-A*29:02; [5]): ≥ 20 µM; Kd (HLA-B*27:03; [5]): ≥ 20 µM; Kd (HLA-B*15:17; [5]): ≥ 20 µM; Kd (HLA-B*39:01; [5]): ≥ 20 µM; Kd (HLA-A*02:19; [5]): ≥ 20 µM

**Q.** How did the Kd (HLA-B*15:02; source organism: Encephalitozoon cuniculi GB-M1) turn out when ILKEYPQVY was run?
**A.** 0.155 µM

**Q.** How did the Kd (HLA-A*26:01; [6]) turn out when KLYPNVDFY was run?
**A.** ≥ 20 µM

**Q.** What about the Kd (HLA-A*02:01; [6]) of the same sequence?
**A.** ≥ 20 µM

**Q.** And the Kd (HLA-A*01:01)?
**A.** 3.47 µM

**Q.** And the Kd (HLA-A*26:02)?
**A.** ≥ 20 µM

**Q.** What about the Kd (HLA-B*15:01; [6]) of the same sequence?
**A.** 0.107 µM

**Q.** And the Kd (HLA-B*27:05)?
**A.** ≥ 20 µM

**Q.** And the Kd (HLA-B*18:01; [6])?
**A.** ≥ 20 µM

**Q.** And the Kd (HLA-B*15:17; [6])?
**A.** 0.207 µM

**Q.** And the Kd (HLA-A*02:06)?
**A.** 1.6 µM

**Q.** And the Kd (HLA-B*48:01)?
**A.** ≥ 20 µM

**Q.** And the Kd (HLA-A*69:01)?
**A.** ≥ 20 µM

**Q.** And the Kd (HLA-A*11:01)?
**A.** 0.225 µM

**Q.** And the Kd (HLA-A*31:01)?
**A.** 3.63 µM

**Q.** And the Kd (HLA-A*68:02)?
**A.** ≥ 20 µM

**Q.** What about the Kd (HLA-B*40:01) of the same sequence?
**A.** ≥ 20 µM

**Q.** What about the Kd (HLA-B*46:01 [2]) of the same sequence?
**A.** ≥ 20 µM

**Q.** What about the Kd (HLA-B*07:02) of the same sequence?
**A.** ≥ 20 µM
